In the data set the test system is β-galactosidase. In words: β-galactosidase activity assay with ONPG substrate. It is filed as biochemical. The settings on record: after dithioerythritol treatment and Biogel A5M chromatography. The method, then:
C. To 1.8 ml of a 35.3 mg/ml solution of the antiHIgG was added 60 μl (10 mg/ml DMF) of m-maleimidobenzoic acid NHS ester and the mixture allowed to stand at room temperature for 30 min, followed by the addition of 0.18 ml of 1 M sodium acetate, pH 5. The reaction mixture was then dialyzed 2×500 ml (degassed) 20 mM sodium acetate, pH 5, 0.15 M NaCl for 1 hr at room temperature. To a solution of 5 ml of β-galactosidase (1.47 mg/ml) was added 0.2 ml of 0.5 M phosphate, pH 7, followed by 2 ml of the above reaction product at a concentration of 31.1 mg/ml and the mixture incubated at room temperature for 4 hrs. The reaction was terminated by the addition of 0.2 ml of 10 mM cysteine-HCl and incubating for 0.5 hr to yield a final volume of 7.4 ml. […] Fractions 24 to 33 were collected to provide a volume of 50 ml with an optical density at 280 nm of 0.540 and a molar ratio of antibody to enzyme of about 5:1. […] Assaying for the enzyme employed a 10 μl fraction dissolved in 0.5 ml PBS, N3, Mg, RSA combined with 0.1 ml 20 mM ONPG in 0.4 ml buffer and measuring the rate at 37° at 420 nm for the interval between 10 to 20 secs after addition of the substrate.
D. The above procedure was repeated as follows. […] The assays were performed at 37° C., reading at 420 nm employing an assay solution of 10 μl of the conjugate, 0.9 ml PBS, N3, Mg, RSA and 0.1 ml of substrate (20 mM ONPG).

On to “β-galactosidase: β-galactosidase (Boehringer 150797), treated with dithioerythritol and chromatographed on Biogel A5M”, for which the enzyme activity was 477 u/mg of protein.
